Results: article PMC10351726 (PLOS ONE, 2023)

Columns and labels:
Conditions in all cases: both partners purified
[1] = target: T1, HER2-ECD biotinylated at single site (Homo sapiens, UniProt P04626, biotinylated at single site); test: SPR; Biacore 8K; biotinylated HER2-ECD on a streptavidin chip; sdAbs injected in multi-cycle kinetics, 2-fold dilution series from 5 nM; 100 μL/min, 25°C, HBS-EP+ pH 7.4; 1:1 model
T1 construct: human HER2 extracellular domain; also called ECD of HER2; source: bought: Sino Biological

mouse HER2-ECD-Fc = target: T2, mouse HER2-ECD-Fc (Mus musculus, UniProt P70424); test: ELISA; microplates coated with human or mouse HER2-ECD-Fc, blocked with 1% BSA at room temperature; NM-02 serially diluted from 160 nM; detected with mouse anti-HA and anti-mouse IgG-alkaline phosphatase
T2 construct: mouse HER2 (ErbB2), extracellular domain; also called murine HER2-ECD; recombinant murine HER2-ECD; source: bought: R&D systems

human HER2-ECD-Fc [2] = target: T3, human HER2-ECD-Fc (Homo sapiens, UniProt P04626); test: as above
T3 construct: human epidermal growth factor receptor-2 (HER2), extracellular domain; The supplier is named only for the cross-reactivity ELISA; also called recombinant human HER2-Fc; recombinant human HER2-ECD; source: bought: R&D systems

human HER2-ECD-Fc [3] = target: T3, human HER2-ECD-Fc; test: ELISA; recombinant human HER2-Fc (1 μg/mL) coated on a MaxiSorp plate; His-tagged sdAb pre-incubated 7 days at 37°C in human, mouse or cynomolgus serum or PBS, then serially diluted; detected with anti-HIS-HRP

T2 sequence (P70424 23-653): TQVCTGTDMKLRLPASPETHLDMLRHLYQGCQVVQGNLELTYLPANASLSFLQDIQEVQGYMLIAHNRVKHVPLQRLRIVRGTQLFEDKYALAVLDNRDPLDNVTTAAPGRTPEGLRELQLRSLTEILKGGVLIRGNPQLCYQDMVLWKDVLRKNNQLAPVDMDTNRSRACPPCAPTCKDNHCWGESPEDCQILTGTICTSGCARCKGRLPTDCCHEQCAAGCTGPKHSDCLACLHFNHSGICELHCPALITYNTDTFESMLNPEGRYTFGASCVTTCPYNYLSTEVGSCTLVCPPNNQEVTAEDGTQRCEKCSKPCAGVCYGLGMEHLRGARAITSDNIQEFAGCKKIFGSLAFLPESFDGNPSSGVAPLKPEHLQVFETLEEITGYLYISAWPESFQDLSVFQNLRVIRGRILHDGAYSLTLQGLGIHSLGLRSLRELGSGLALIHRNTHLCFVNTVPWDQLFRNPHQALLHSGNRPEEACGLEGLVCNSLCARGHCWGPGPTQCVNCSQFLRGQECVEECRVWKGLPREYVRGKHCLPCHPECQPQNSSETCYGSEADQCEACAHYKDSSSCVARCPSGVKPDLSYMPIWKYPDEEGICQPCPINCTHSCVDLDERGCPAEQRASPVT

B1: humanised NM-02 variant F (VHH)
VHH: QVQLQESGGGLVQPGGSLRLSCSASGFTFDDSDMGWYRQAPGNECELVSSISSDGSTYYADSVKGRFTISQDNSKNTLYLQMNSLRAEDTAVYYCAAEGHRYELGTCAALDYWGRGTLVTVSS
notes: humanised variant F of NM-02; source: ExpiCHO-S, transiently transfected, purified (HisTrap Excel, SEC)
binding result [1]: binds

B2: NanoMab-02 (NM-02), HA- and His-tagged (VHH)
VHH: QVQLQESGGGSVQAGETLRLSCTASGFTFDDSDMGWYRQAPGNECELVSSISSDGSTYYADSVKGRFTISQDNAKNTVYLQMNSLKPEDTGVYYCAAEGHRYELGTCAALDYWGRGTQVTVSS
notes: camel (Camelus bactrianus) anti-HER2 single-domain antibody from a phage display library; In the ELISA and flow cytometry it was detected through the HA tag only; The microarray used the dual His6 + HA version (methods: 'either HA- and/or His-tagged'); also called dual tagged version of NM-02; duel-tagged NM-02
binding result (mouse HER2-ECD-Fc): no binding (tested: 160 nM) | EC50 (human HER2-ECD-Fc [2]): 1200 pM

B3: humanised NM-02 variant M (VHH)
VHH: QVQLQESGGGLVQPGGSLRLSCSASGFTFDDSDMGWYRQAPGNECELVSSISSDGSTYYADSVKGRFTISQDNSKNTVYLQMNSLRAEDTGVYYCAAEGHRYELGTCAALDYWGRGTLVTVSS
notes: humanised variant M of NM-02, with parental back mutations; source: ExpiCHO-S, transiently transfected, purified (HisTrap Excel, SEC)
binding result [1]: binds

B4: humanised NM-02 variant J (VHH)
VHH: QVQLQESGGGSVQPGGSLRLSCSASGFTFDDSDMGWYRQAPGNECELVSSISSDGSTYYADSVKGRFTISQDNSKNTLYLQMNSLRAEDTGVYYCAAEGHRYELGTCAALDYWGRGTQVTVSS
notes: humanised variant J of NM-02, with parental back mutations; source: ExpiCHO-S, transiently transfected, purified (HisTrap Excel, SEC)
binding result [1]: binds

B5: lead humanised NM-02 candidate (variant K) (VHH)
VHH: QVQLQESGGGLVQPGGSLRLSCTASGFTFDDSDMGWYRQAPGNECELVSSISSDGSTYYADSVKGRFTISQDNSKNTLYLQMNSLRAEDTGVYYCAAEGHRYELGTCAALDYWGRGTLVTVSS
notes: humanised variant K of NM-02, 82.5% human identity; also called humanised variant K; humanised lead; source: ExpiCHO-S, transiently transfected, purified (HisTrap Excel, SEC); not shown: His-tag (with short GSG linker), C-terminal, kept
Kd [1]: 212 pM | fold more potent than variant E [1]: ≥ 2 fold | fold drop-off of activity after 7 days at 37°C in human serum versus PBS (human HER2-ECD-Fc [3]): 1.5 fold

B6: humanised NM-02 variant E (VHH)
VHH: QVQLQESGGGLVQPGGSLRLSCSASGFTFDDSDMGWYRQAPGNECELVSSISSDGSTYYADSVKGRFTISQDNSKNTLYLQMNSLRAEDTGVYYCAAEGHRYELGTCAALDYWGRGTLVTVSS
notes: humanised variant E of NM-02, 83.5% human identity; also called mid-humanised candidate; source: ExpiCHO-S, transiently transfected, purified (HisTrap Excel, SEC)
binding result [1]: binds

B7: humanised NM-02 variant H (VHH)
VHH: QVQLQESGGGSVQPGGSLRLSCSASGFTFDDSDMGWYRQAPGNECELVSSISSDGSTYYADSVKGRFTISQDNSKNTLYLQMNSLRAEDTAVYYCAAEGHRYELGTCAALDYWGRGTLVTVSS
notes: humanised variant H of NM-02, with parental back mutations; source: ExpiCHO-S, transiently transfected, purified (HisTrap Excel, SEC)
binding result [1]: binds

B8: humanised NM-02 variant G (VHH)
VHH: QVQLQESGGGLVQPGGSLRLSCSASGFTFDDSDMGWYRQAPGNECELVSSISSDGSTYYADSVKGRFTISQDNSKNTLYLQMNSLRAEDTAVYYCAAEGHRYELGTCAALDYWGRGTQVTVSS
notes: humanised variant G of NM-02, with parental back mutations; source: ExpiCHO-S, transiently transfected, purified (HisTrap Excel, SEC)
binding result [1]: binds

B9: humanised NM-02 variant D (VHH)
VHH: QVQLQESGGGLVQPGGSLRLSCAASGFTFDDSDMGWYRQAPGNECELVSSISSDGSTYYADSVKGRFTISQDNSKNTLYLQMNSLRAEDTGVYYCAAEGHRYELGTCAALDYWGRGTLVTVSS
notes: humanised variant D of NM-02; source: ExpiCHO-S, transiently transfected, purified (HisTrap Excel, SEC)
binding result [1]: binds

B10: humanised NM-02 variant L (VHH)
VHH: QVQLQESGGGLVQPGGSLRLSCSASGFTFDDSDMGWYRQAPGNECELVSSISSDGSTYYADSVKGRFTISQDNAKNTLYLQMNSLRAEDTGVYYCAAEGHRYELGTCAALDYWGRGTLVTVSS
notes: humanised variant L of NM-02, with parental back mutations; source: ExpiCHO-S, transiently transfected, purified (HisTrap Excel, SEC)
binding result [1]: binds

B11: humanised NM-02 variant N (VHH)
VHH: QVQLQESGGGLVQPGGSLRLSCSASGFTFDDSDMGWYRQAPGNECELVSSISSDGSTYYADSVKGRFTISQDNSKNTLYLQMNSLRPEDTGVYYCAAEGHRYELGTCAALDYWGRGTLVTVSS
notes: humanised variant N of NM-02, with parental back mutations; source: ExpiCHO-S, transiently transfected, purified (HisTrap Excel, SEC)
binding result [1]: binds

B12: NanoMab-02 (NM-02) (VHH)
VHH: QVQLQESGGGSVQAGETLRLSCTASGFTFDDSDMGWYRQAPGNECELVSSISSDGSTYYADSVKGRFTISQDNAKNTVYLQMNSLKPEDTGVYYCAAEGHRYELGTCAALDYWGRGTQVTVSS
notes: camel (Camelus bactrianus) anti-HER2 single-domain antibody; residues Gln3 to Ser123 modelled in the structure; The humanised variants were made in ExpiCHO-S with a C-terminal GSG-His tag, and the parent run beside them may have the same format; also called parent; wild type NM-02
Kd [1]: ~200 pM

B13: humanised NM-02 variant B (VHH)
VHH: QVQLQESGGGLVQPGETLRLSCAASGFTFDDSDMGWYRQAPGNECELVSSISSDGSTYYADSVKGRFTISQDNSKNTLYLQMNSLRAEDTGVYYCAAEGHRYELGTCAALDYWGRGTLVTVSS
notes: humanised variant B of NM-02; source: ExpiCHO-S, transiently transfected, purified (HisTrap Excel, SEC)
binding result [1]: binds

B14: humanised NM-02 variant I (VHH)
VHH: QVQLQESGGGLVQPGGSLRLSCSASGFTFDDSDMGWYRQAPGNECELVSSISSDGSTYYADSVKGRFTISQDNSKNTLYLQMNSLRAEDTGVYYCAAEGHRYELGTCAALDYWGRGTQVTVSS
notes: humanised variant I of NM-02, with parental back mutations; source: ExpiCHO-S, transiently transfected, purified (HisTrap Excel, SEC)
binding result [1]: binds
